Source: paper PMC5758563, “Structural analysis of mtEXO mitochondrial RNA degradosome reveals tight coupling of nuclease and helicase components”

Biological target: Cg-Dss1 (full-length, wild type) (Candida glabrata, UniProt Q6FJE0 24-923)
Assay: footprinting (RNase I protection); 2 mM ATP, 3 mM MgCl2; RNase I footprinting: 100 nM RNA, 150 nM protein, 20 mM Tris pH 7.4, 50 mM NaCl, 3 mM MgCl2, with or without 2 mM ATP, 30 C; EDTA added before RNase I. Crystal
Conditions: protein: recombinant; tags: His6-MBP removed by TEV; label: 32P body label

B1: L1 RNA (79 nt) (structured_RNA)
RNA: GGAACUCCAUAUAUGGGCUAUGAACUAAUGACCCCGUAAUUGAUUACUAUUAGCCCGGGCAAUGUGCACAUGUACCCUA
- binding result: binds
